The target of the data set is T1, mRAG1F (mouse, UniProt P15919 389-456).
T1 sequence: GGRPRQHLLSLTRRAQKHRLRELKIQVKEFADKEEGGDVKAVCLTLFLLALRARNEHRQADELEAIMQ
Briefly: DNA-binding assay (type not stated); EMSA: 25 mM MOPS pH 7.0, 50 mM KCl, 2 mM DTT, 1.5 mM CaCl2, 2.5% glycerol, 50 nM HMGB1, 100 nM ss nonspecific oligo, ~50 nM each RAG, 25 C 20 min; pull-down: 50 mM Tris pH 7.5, 150 mM NaCl, 0.5% NP40, 5% glycerol, 1.5 mM CaCl2, 4 C. The note with it: protein: recombinant; chain copies: 2; label: 5' biotin on strand 1; blunt.

B1: 12RSS (dsDNA)
DNA 1: GATCTGGCCTGTCTTACACAGTGATACAGACCTTAACAAAAACCCTGCAG
DNA 2: CTGCAGGGTTTTTGTTAAGGTCTGTATCACTGTGTAAGACAGGCCAGATC
As for B1, the binding result is “binds”.

The record behind these values is publication PMC8289069, “Functional requirement of terminal inverted repeats for efficient ProtoRAG activity reveals the early evolution of V(D)J recombination”.
